Assay results reported in patent US20200102387A1 (CELGENE, published 2020).

Legend:
[1] = target: T1, FcγR1 (CD64) (human, UniProt P12314 16-374); assay: cell binding, FcγR-engineered HEK293 cells
T1 construct: whole, on cells

[2] = target: T2, FcγR2A (CD32aH131) (human, UniProt P12318 34-317); assay: cell binding, FcγR-engineered HEK293 cells
T2 construct: whole, on cells
T2 sequence (looked up): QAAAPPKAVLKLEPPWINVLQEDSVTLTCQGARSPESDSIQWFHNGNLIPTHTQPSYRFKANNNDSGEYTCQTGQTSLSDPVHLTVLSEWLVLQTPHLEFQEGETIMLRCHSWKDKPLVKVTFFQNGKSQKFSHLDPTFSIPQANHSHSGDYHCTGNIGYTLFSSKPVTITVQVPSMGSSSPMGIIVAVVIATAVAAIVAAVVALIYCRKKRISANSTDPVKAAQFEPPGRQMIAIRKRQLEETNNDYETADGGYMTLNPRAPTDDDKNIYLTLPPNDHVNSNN

[3] = target: T3, FcγR2A (CD32aR131) (human, UniProt P12318 34-317); assay: cell binding, FcγR-engineered HEK293 cells
T3 construct: whole, on cells
T3 sequence (looked up): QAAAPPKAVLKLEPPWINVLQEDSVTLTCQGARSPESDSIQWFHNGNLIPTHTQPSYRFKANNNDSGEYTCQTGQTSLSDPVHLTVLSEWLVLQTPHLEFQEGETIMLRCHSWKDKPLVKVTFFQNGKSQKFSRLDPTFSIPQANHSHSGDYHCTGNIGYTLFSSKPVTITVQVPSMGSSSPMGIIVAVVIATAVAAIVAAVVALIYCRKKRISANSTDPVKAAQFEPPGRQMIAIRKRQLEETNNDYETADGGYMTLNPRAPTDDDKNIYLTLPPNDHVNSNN

[4] = target: T4, FcγR2B (human, UniProt P31994 43-310); assay: cell binding, FcγR-engineered HEK293 cells
T4 construct: whole, on cells
T4 sequence (looked up): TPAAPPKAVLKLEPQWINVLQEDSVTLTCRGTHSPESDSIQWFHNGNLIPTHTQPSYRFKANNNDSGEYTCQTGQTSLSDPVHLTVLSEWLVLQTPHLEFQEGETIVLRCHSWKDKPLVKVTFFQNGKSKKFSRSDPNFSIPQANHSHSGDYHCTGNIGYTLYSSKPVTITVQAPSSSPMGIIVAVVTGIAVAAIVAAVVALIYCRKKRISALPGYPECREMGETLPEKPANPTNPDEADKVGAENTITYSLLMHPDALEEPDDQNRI

[5] = target: T5, FcγR3A (CD16aF158) (human, UniProt P08637 17-254); assay: cell binding, FcγR-engineered HEK293 cells
T5 construct: whole, on cells
T5 sequence (P08637 17-254): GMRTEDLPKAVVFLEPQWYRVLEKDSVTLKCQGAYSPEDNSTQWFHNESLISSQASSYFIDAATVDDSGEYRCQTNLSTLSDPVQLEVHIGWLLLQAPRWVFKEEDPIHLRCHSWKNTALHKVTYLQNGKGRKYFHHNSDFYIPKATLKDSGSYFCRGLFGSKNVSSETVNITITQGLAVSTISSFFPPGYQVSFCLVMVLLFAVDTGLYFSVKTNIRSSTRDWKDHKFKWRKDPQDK

[6] = target: T6, mouse SIRPα on cells (mouse, UniProt P97797 32-513); assay: flow cytometry on Mouse SIRPα-CHO-K1 cells
T6 construct: whole, on cells; also called mouse SIRPα-CHO-K1; Ms SIRPα-CHO-K1
T6 sequence (looked up): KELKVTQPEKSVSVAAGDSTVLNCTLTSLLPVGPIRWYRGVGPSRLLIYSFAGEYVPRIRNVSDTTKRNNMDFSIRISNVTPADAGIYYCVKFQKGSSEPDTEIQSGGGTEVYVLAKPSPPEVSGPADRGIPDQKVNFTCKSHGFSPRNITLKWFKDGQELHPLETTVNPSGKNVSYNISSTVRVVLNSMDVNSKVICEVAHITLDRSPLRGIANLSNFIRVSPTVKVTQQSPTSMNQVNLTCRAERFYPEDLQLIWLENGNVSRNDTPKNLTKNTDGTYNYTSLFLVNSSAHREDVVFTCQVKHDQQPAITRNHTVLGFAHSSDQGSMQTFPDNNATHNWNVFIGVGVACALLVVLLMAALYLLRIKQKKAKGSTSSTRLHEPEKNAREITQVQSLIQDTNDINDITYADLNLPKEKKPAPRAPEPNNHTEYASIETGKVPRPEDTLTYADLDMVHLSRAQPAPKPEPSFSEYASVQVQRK

[7] = target: T7, extracellular domain of SIRPα v1-DLN (e.g. SIRPα1) (human, UniProt P78324 31-373); assay: SPR Biacore T200, antibody captured on Protein A chip
T7 construct: also called hSIRPα - ECD (v1)

[8] = target: T8, SIRPβ extracellular domain (human, UniProt O00241 30-371); assay: as above
T8 construct: also called hSIRPβ - ECD
T8 chain: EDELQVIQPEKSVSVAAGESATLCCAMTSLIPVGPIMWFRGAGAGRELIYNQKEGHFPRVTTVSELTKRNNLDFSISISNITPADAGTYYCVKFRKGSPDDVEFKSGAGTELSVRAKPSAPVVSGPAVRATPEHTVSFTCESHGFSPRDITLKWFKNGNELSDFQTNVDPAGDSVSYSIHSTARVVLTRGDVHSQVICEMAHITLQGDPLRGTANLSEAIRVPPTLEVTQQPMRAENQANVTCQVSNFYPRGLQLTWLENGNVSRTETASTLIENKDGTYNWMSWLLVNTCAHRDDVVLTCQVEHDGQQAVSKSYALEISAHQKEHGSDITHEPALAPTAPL

[9] = target: T9, SIRPγ extracellular domain (human, UniProt Q9P1W8 29-360); assay: as above
T9 construct: also called hSIRPγ - ECD
T9 sequence (Q9P1W8 29-360 limits assumed): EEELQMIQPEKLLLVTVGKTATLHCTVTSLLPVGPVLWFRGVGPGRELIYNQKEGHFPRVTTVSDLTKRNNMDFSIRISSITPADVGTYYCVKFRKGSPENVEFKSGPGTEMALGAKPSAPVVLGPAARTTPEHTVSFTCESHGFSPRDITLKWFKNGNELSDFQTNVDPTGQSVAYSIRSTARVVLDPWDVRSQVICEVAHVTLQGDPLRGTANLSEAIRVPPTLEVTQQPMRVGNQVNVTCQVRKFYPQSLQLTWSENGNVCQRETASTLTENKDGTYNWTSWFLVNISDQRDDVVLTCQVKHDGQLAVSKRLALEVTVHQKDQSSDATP

T1 sequence (P12314 16-374): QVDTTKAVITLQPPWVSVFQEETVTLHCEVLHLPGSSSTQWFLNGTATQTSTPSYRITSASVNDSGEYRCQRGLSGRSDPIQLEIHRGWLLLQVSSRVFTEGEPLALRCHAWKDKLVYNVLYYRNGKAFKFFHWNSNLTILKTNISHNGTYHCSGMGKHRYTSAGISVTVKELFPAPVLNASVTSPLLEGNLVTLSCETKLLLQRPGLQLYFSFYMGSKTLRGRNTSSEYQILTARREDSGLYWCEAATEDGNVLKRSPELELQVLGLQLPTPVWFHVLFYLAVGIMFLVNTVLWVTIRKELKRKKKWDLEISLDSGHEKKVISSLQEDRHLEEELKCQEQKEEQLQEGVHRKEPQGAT

B1: SIRPAB-11-K322A (antibody, human IgG1, kappa)
light: DIQMTQSPSSVSASVGDRVTITCRASQGISSWLAWYQQKPGKAPKLLIYAASNLQSGVPSRFSGSGSGTDFTLTISSLQPEDFATYYCQQGASFPITFGGGTKVEIKRTVAAPSVFIFPPSDEQLKSGTASVVCLLNNFYPREAKVQWKVDNALQSGNSQESVTEQDSKDSTYSLSSTLTLSKADYEKHKVYACEVTHQGLSSPVTKSFNRGEC
heavy: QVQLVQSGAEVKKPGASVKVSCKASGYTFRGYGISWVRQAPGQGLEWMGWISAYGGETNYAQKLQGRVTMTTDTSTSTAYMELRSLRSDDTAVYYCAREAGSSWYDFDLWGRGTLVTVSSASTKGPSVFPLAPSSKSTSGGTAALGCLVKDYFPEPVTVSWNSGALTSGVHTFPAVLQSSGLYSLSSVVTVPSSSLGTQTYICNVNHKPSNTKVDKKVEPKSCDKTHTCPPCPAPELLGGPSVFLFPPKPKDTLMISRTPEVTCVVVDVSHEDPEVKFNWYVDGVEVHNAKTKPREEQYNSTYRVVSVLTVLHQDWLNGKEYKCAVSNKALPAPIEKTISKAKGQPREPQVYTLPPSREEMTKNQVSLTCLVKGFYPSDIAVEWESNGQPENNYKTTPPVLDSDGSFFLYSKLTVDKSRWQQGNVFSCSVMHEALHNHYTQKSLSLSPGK
notes: human IgG1 with K322A (EU numbering); also called SIRPAB-11-IgG1-K322A; SIRPAB-11-K322A-AlexaFluor647
**Q.** B1 was tested. Which EC50 [1] did it give?
**A.** 0.79 nM

**Q.** And the EC50 [2]?
**A.** 200 nM

**Q.** What about the EC50 [3] of the same binder?
**A.** 194 nM

**Q.** And the EC50 [4]?
**A.** 2480 nM

**Q.** What about the EC50 [5] of the same binder?
**A.** 1200 nM

**Q.** Does B1 bind [6]?
**A.** no binding (tested: 100 nM (Log nM 2))

**Q.** What about the Kd [7] of the same binder?
**A.** 0.0152 nM

**Q.** And the koff [7]?
**A.** 0.000118 s⁻¹

**Q.** And the kon [7]?
**A.** 7.75e+06 M⁻¹ s⁻¹

**Q.** And the Kd [8]?
**A.** 12.1 nM

**Q.** And the koff [8]?
**A.** 0.000614 s⁻¹

**Q.** And the kon [8]?
**A.** 50600 M⁻¹ s⁻¹

**Q.** And the Kd [9]?
**A.** 0.0101 nM

**Q.** What about the koff [9] of the same binder?
**A.** 0.000188 s⁻¹

**Q.** What about the kon [9] of the same binder?
**A.** 1.71e+07 M⁻¹ s⁻¹
